Results taken from patent US20050118611, “Thioaptamers enable discovery of physiological pathways and new therapeutic strategies” (Board Of Regents, The University of Texas System, published 2005).

Target: NF-κB p65 (RelA) homodimer (UniProt Q04206 Q04206:1-551)
Assay: competition; inhibition/binding similar to unsubstituted aptamer; 32P IgκB competition
Settings: protein: NAME; chain copies: 2 (stated)
Protocol: As the substitutions of dithiophosphate were increased, binding by the [S₂]-ODN oligonucleotide increased dramatically. For example, in a standard competitive binding assay, ³²P IgκB promoter element ODN is incubated with recombinant p65 and varying amounts of XBY aptamer competitor. The relative binding ability of the unlabeled ODNs is determined by the concentration needed to effectively compete with the standard labeled ODN. XBY1 through 6 correspond to CK-14 aptamers with 1 through 6 dithiophosphate substitutions, respectively. The present inventors, according to an embodiment of this invention, developed an oligonucleotide containing six dithioate linkages on the two strands, termed XBY-6. Unlike the fully substituted [S]-ODN CK-14, the XBY-6 hybrid backbone [S₂]-ODN aptamers bound more tightly to p50/p50 (5-fold) than to the p65 homodimer.

Sequence of NF-κB p65 (RelA) homodimer (Q04206 whole entry, one chain of several): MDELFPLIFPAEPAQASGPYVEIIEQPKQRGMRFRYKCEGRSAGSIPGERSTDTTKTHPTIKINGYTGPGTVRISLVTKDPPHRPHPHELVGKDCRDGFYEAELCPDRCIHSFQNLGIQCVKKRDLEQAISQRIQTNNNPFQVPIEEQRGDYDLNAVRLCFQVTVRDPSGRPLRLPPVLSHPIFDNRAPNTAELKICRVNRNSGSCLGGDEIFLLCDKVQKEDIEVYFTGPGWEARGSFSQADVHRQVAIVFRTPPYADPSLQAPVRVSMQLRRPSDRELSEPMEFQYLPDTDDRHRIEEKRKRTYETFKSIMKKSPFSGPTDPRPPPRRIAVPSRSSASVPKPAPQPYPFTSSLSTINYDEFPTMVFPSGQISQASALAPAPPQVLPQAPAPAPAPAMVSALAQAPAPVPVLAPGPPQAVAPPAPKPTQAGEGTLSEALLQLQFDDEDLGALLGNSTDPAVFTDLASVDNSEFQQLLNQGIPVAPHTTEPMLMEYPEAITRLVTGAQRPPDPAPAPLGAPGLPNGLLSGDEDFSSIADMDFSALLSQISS

B1: CK-14 with one or two dithioate linkages (XBY1, XBY2) (dsDNA)
DNA 1: CCAGGAGATTCCAC
DNA 2: GTGGAATCTCCTGG
modifications: 1 or 2 phosphorodithioates, positions not given
binding signal: ~1 fold vs unsubstituted
